From patent US20250090677A1, “ANTI-CDH6 ANTIBODIES AND ANTIBODY-DRUG CONJUGATES THEREOF” (MULTITUDE THERAPEUTICS INC., priority 2021, published 2025)

B1: DS-6000a (conjugate, chains of the INN, looked up)
VH: EVQLVQSGAEVKKPGASVKVSCKASGYTFTRNFMHWVRQAPGQGLEWMGWIYPGDGETEYAQKFQGRVTITADTSTSTAYMELSSLRSEDTAVYYCARGVYGGFAGGYFDFWGQGTLVTVSS
VL: DIQMTQSPSSLSASVGDRVTITCKASQNIYKNLAWYQQKPGKAPKLLIYDANTLQTGVPSRFSGSGSGSDFTLTISSLQPEDFATYFCQQYYSGWAFGQGTKVEIK
modifications: deruxtecan payload
B2: CL069707: mouse anti-CDH6 monoclonal antibody; VH SEQ ID NO: 18, VL SEQ ID NO: 23 (antibody, V domains shown)
VH: EVHLVESGGGLVQPKGSLKLSCVASGFTFTTYAMNWVRQAPGKGLEWVARIRIKNNNYATYYADSVTDRFTISRDDSQSMLYLQMNNLKTEDTAMYYCVRPDYGNYGLAYWGQGTLVTVSA
VL: EIVLTQSPTTMAASPGEKITITCSASSSISSHYLHWYQQKPGFSPKLLIYRSFYLASGVPLRFTGSGSGTSYSLTIGTMEAEDVATYYCQQDIVPLTFGAGTKLELK
modifications: CL069707 VH; Ch069707 VH; CL069707 VL; Ch069707 VL
B3: CL069066: mouse anti-CDH6 monoclonal antibody; VH SEQ ID NO: 95, VL SEQ ID NO: 96 (antibody, V domains shown)
VH: EVKLLESGGGLVQPGGSLKLSCAASGFDFSRYWMTWVRQAPGKGLEWIGEINPDSSTINYTPSLKDKFIISRDNAKNTLYLQMNKVTSEDTALYYCTRRPHYYGYFDSWGQGTTLTVSS
VL: DIVLTQSPASLAVSLGQRATISCRASESVEYYGTTLMQWYQQKPGQPPQLLIYAGSNVESGVPARFSGSGSGTEFSLNIHPVEEDDIGMYFCQQSRKVPWTFGGGTKLEIK
modifications: CL069066 VH; Ch069066 VH; CL069066 VL; Ch069066 VL
B4: CL069463: mouse anti-CDH6 monoclonal antibody; VH SEQ ID NO: 41, VL SEQ ID NO: 46 (antibody, V domains shown)
VH: EVQLVESGGGLVQPKGSLKLSCAASGFTFNTYALTWVRQAPGKGLEWVGRIKSKNKDYETYYADSVKDRFTISRNDSQSLLYLQMNNLKTEDTAIYYCVRQNWNYFDYWGQGTTLTVSS
VL: DIQMTQSPASLAASVGETVTITCRASENIYYSLAWYQQRQGKSPQLLIYNANSLKDGVPSRFSGSGSGTQYSMKINSMQPEDTATYFCQQAYDVPPTFGGGTKLEIK
modifications: CL069463 VH; Ch069463 VH; CL069463 VL; Ch069463 VL
B5: CL069439: mouse anti-CDH6 monoclonal antibody; VH SEQ ID NO: 103, VL SEQ ID NO: 104 (antibody, V domains shown)
VH: EVQLQQSGTELVRTGASVKISCKASGYSFTGYYIHWIKQSHGESLEWIGYISCFNGDTSYNQNFKDRATFNVDTSSSTAYMQFISLTSEDSAVYYCVRGRYGNFNYFDYWGQGTTLTVSS
VL: DIVLTQSPASLAVSLGQRATISCRASESVEFYGTSLMQWFQQKPGHPPQLLIYATSNVDSGVPARFSASGSGTDFSLNIHPVEEADIAMYFCQQSRRIPWTFGGGTKLEIK
modifications: CL069439 VH; Ch069439 VH; CL069439 VL; Ch069439 VL

Tests used:
[1] = Aggregation of antibody-drug conjugate by SEC-HPLC (common procedure G); assay type: physicochemical
Source text: The aggregation in the antibody-drug conjugate can be determined by size exclusion chromatography (SEC) in high-performance liquid chromatography (HPLC) analysis using the following method. • HPLC system: Agilent 1260 Infinity II HPLC system (Agilent Technologies, Inc.) • Detector: Ultraviolet absorption spectrometer (measurement wavelength: 280 nm) • SEC-Column: TOSOH TSKgel G3000SWXL (7.8×300 mm, 5 μm) • Mobile phase: 200 mmol/L KHPO4, 150 mmol/L NaCl, 15% (v/v) isopropanol, pH7.0 • Flow rate: 0.75 mL/min • Isocratic Operation: 18 min • Column temperature: room temperature • Sample injection: 50 μg
The SEC chromatogram of quality control (QC, CL069707-H1L1) was shown in FIG. 5A, it is confirmed that the molecular weight of the main QC product is about 150 kDa and the monomer retention time is around 9.5-10.5 min. Meanwhile, the retention time of aggregation is earlier than that of monomer.

[2] = test system: Renal Carcinoma Patient-Derived Xenograft (PDX); assay: In vivo antitumor effect in renal carcinoma patient-derived xenograft (PDX) model; design: species or system mice; settings: 10 mg/kg intravenous, compared with IgG-LP1 or IgG-GGFG-DXd, FIG. 21A
Procedure: 6-8 weeks Nu/Nu mice were purchased from Zhejiang Charles River Co., Ltd. The tumors were sliced into 3 mm×3 mm×3 mm (about 50-90 mg) fragments and implanted subcutaneously into the right flank of mice. Then the animals were checked daily for tumor growth and body weight. The mice were randomized into 5 groups when mean tumor volume reaches ˜150 mm^3. The grouping day was regarded as day 0. Mice were then injected intravenous with 10 mg/kg of one of the following substances:10 mg/kg IgG-LP1, CL069707-H1L1-LP1, IgG-GGFG-DXd, Reference ADC and Reference Antibody-LP1. Tumor volumes were measured two times per week from day of treatment initiation by Caliper and calculated as follows: […].

[3] = Hydrophilicity of antibody-drug conjugate by HIC-HPLC (common procedure H); assay type: physicochemical; settings: shorter retention time = better hydrophilicity
Source text: The Hydrophilicity of the antibody-drug conjugate can be determined by hydrophobic interaction chromatography (HIC) in high-performance liquid chromatography (HPLC) analysis using the following method. • HPLC system: Agilent 1260 Infinity II HPLC system (Agilent Technologies, Inc.) • Detector: Ultraviolet absorption spectrometer (measurement wavelength: 280 nm) • HIC-Column: TOSOH TSKgel Butyl-NPR (4.6 mm I.D.×3.5 cm, 2.5 μm) • Mobile phase A: 1.5 mol/L (NH4)2SO4, 50 mmol/L KHPO4, pH7.0 • Mobile phase B: 50 mmol/L KHPO4, 25% (v/v) isopropanol, pH7.0 • Isocratic Operation: 25 min • Column temperature: room temperature • Gradient program (B %): 0%-25% (0 min-1 min), 25% (1 min-3 min), 25%-80% (3 min-13 min), 80% (13 min-17 min), 80%-0% (17 min-17.10 min), 0% (17.10 min-25 min) • Sample injection: 10 μL
It is confirmed that the shorter the retention time, the better of the sample's hydrophilicity

[4] = test system: HepG2 cells (human hepatoma cells); assay: Flow cytometry, HepG2 negative cells; assay type: binding; settings: antibody diluted to 20 μg/mL, FCM
Procedure: (§1) The binding of 13 CDH6 monoclonal antibodies to CDH6 on the cell surface was analyzed by Flow cytometry (FCM) using OVCAR-3 cells (human ovarian cancer cells) as positive cells and HepG2 cells (human hepatoma cells) as negative cells. Cells in the logarithmic growth phase were collected, adjusted to a cell density of 5×10^6 cells/mL, and pre-cooled on ice. 13 CDH6 monoclonal antibodies were diluted to 20 μg/mL in 2% FBS-containing pre-cooled saline. 100 μL of cells were taken and added with an equal volume of the diluted CDH6 monoclonal antibodies described above, and the mixture was reacted at 4° C. for 30 min in the dark. After the reaction was completed, the cells were washed twice with […] pre-cooled saline (6000 rpm, 45 s). The secondary antibody PE anti-mouse IgG (BD Pharmingen) was diluted at 1:500 with 2% FBS-containing pre-cooled saline, and each of the washed cells were resuspended with 100 μL of diluted secondary antibody and reacted for 30 min at 4° C. in the dark. After the reaction was completed, the cells were washed twice with 2% FBS-containing pre-cooled saline (6000 rpm, 45 s). The cells were resuspended in 400 μL of saline. The flow cytometer (BD Calibur) was used to analyze the binding ability of antibodies to cell surface antigens.

[5] = test system: OVCAR-3 cells (human ovarian cancer cells); assay: Flow cytometry recognition of cell-surface CDH6, OVCAR-3 positive cells; assay type: binding; settings: antibody diluted to 20 μg/mL, FCM, FIG. 24
Procedure: as §1

recombinant protein CDH6 = biological target: T1, recombinant protein CDH6 (Homo sapiens, UniProt P55285); assay: ELISA binding activity of mouse monoclonal antibodies to CDH6 recombinant protein; settings: CDH6 coated 1 μg/mL, FIG. 23
T1 construct: CDH6 extracellular region (Ser 54-Ala 615) was used as an immunogen; purchased ACRO Biosystems CA6-H5229
T1 sequence (P55285 54-615): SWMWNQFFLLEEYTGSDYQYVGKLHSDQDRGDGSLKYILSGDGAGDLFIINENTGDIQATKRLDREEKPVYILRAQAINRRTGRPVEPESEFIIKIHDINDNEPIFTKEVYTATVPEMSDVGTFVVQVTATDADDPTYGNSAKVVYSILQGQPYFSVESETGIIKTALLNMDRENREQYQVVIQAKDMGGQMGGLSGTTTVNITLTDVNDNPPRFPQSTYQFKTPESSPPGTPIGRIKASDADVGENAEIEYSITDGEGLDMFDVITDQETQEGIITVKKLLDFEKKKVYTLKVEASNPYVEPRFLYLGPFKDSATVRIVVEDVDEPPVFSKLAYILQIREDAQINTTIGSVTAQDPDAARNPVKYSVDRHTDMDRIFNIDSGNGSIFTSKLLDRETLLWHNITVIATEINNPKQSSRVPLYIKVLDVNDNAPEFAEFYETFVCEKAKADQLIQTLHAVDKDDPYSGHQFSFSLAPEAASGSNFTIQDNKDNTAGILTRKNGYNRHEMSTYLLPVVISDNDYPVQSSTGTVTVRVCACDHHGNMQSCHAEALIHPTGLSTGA
Procedure: The recombinant protein CDH6 was coated on ELISA plates at 1 μg/mL overnight at 4° C.; after being washed with PBST, the plate was added with 10% fetal bovine serum, and the mixture was blocked at 37° C. for 1 h; the plate was added with 13 monoclonal antibodies of CDH6 with different dilutions (0.1 ng/mL to 100 ng/mL), and the mixture was reacted at 37° C. for 1 h; after being washed with PBST, the plate was added with horseradish peroxidase-labeled goat anti-human IgG secondary antibody (Goat anti Mouse (HRP), Thermo Fisher Scientific), and the mixture was reacted at 37° C. for 30 min; after the plate was repeatedly washed with PBST 5 times, the remaining droplets on the absorbent paper were patted as much as possible; each well of the plate was added with 100 μL of TMB (eBioscience) and placed in the dark at room temperature (20±5° C.) for 1.5 min; each well of the plate was added with 100 μL of 2 N H2SO4 stop buffer for stopping substrate reaction, OD values at 450 nm were read using a microplate reader, and the binding ability of the antibody to the target antigen CDH6 was analyzed. As shown in Table 1 and FIG. 23, the sensitivity of the anti-CDH6 antibody and CDH6 recombinant protein of the present application was not more than 12.5 ng/mL, wherein #13 (CL069463 antibody) was not more than 3.125 ng/mL, #23 (CL069707 antibody) was not more than 1.56 ng/mL, #4 (CL069066 antibody) was not more than 6.3 ng/mL, and #16 (CL069439 antibody) was not more than 1.0 ng/mL.

| Molecule | aggregation of the antibody-drug conjugate measured by common procedure G [1] | tumor volume / tumor growth inhibition [2] | retention time of the antibody-drug conjugate measured by common procedure H [3] | binding to negative cells HepG2 [4] | specific recognition of OVCAR-3 cells (positive cells) [5] | sensitivity of the anti-CDH6 antibody and CDH6 recombinant protein (ELISA) (recombinant protein CDH6) |
| --- | --- | --- | --- | --- | --- | --- |
| B1 | 2.68% | no tumor growth inhibition activity | 7.672 min | – | – | – |
| B2 | – | – | – | no binding was observed | capable of specifically recognizing | not more than 1.56 ng/mL |
| B3 | – | – | – | – | – | not more than 6.3 ng/mL |
| B4 | – | – | – | no binding was observed | capable of specifically recognizing | not more than 3.125 ng/mL |
| B5 | – | – | – | – | – | not more than 1.0 ng/mL |
